These are literature values, as cited in paper PMC6826157.

In one data set the target is Lys270 (UniProt position 270, AMSAKKDAMVP). Briefly: kinetics. As to conditions: V/K profile with the natural substrate L-tryptophan (free enzyme plus substrate).
Another data set deals with Asp137 (UniProt position 137, SNYFFDTTQGH). Briefly: kinetics. The note with it: V/K profile with the natural substrate L-tryptophan (free enzyme plus substrate).

For orientation: pKa means the pH at which an ionisable group is half protonated. On to “Tryptophan indole-lyase (tryptophanase, TIL, EC 4.1.99.1) (Escherichia coli)”, for which the pKa in the data set with Lys270 is 7.6 ± 0.09; in the data set with Asp137, 6.0 ± 0.2.
